{
  "source": "patent US20180185502A1",
  "about": "“IMMOBILIZATION OF BIOMOLECULES BY SELF-ASSEMBLED NANOSTRUCTURES” (priority 2015, published 2018)",
  "format_in_all_cases": "biochemical",
  "key": {"[1]": {"biological_target": "T1, R. rubrum RubisCO (Rhodospirillum rubrum, UniProt P04718)", "T1 sequence (P04718 1-466)": "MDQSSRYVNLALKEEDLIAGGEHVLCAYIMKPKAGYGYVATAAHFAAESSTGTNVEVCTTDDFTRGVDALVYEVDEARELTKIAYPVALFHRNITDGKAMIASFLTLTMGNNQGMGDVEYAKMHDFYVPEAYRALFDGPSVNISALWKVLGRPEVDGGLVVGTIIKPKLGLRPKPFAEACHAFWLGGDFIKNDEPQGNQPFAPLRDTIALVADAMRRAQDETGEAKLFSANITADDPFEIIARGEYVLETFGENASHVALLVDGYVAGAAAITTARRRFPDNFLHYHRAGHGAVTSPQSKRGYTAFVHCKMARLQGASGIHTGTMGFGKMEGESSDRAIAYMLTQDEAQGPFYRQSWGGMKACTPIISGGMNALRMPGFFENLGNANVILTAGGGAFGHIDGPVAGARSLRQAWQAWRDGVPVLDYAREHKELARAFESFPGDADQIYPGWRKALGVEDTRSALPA", "test": "RubisCO functional assay (activity of free, nanotube-bound or monomer-exposed enzyme)", "details": "initial functional assays"}, "[2]": {"biological_target": "T1, R. rubrum RubisCO", "test": "RubisCO functional assay (activity of free, nanotube-bound or monomer-exposed enzyme)", "protocol": "Although the samples were identical in purity and composition, the resultant activity of the bound RubisCO varied. […] Thus, by pelleting the nanotube by ultracentrifugation, followed by additional washing of the pellet, prior to adding the enzyme, the activity increased dramatically to 67%.\nNanotubes for this experiment were set up with 10 mM monomer in 1 mL buffer and aged for ˜5 days at room temperature. Nanotubes were then isolated using ultracentrifugation and re-suspended back in 1 mL buffer with 0.1 mg of R. rubrum RubisCO. This suspension was incubated at 1° C. for 15 hrs prior to ultracentrifugation and re-suspension of the final nanotubes in 1 mL buffer."}, "[3]": {"biological_target": "T1, R. rubrum RubisCO", "test": "Stability of nanotube-RubisCO co-assembly to proteolysis by subtilisin over 45 minutes", "details": "within 45 minutes; FIG. 5", "protocol": "Subtilisin is a non-specific, serine protease capable of rapidly degrading proteins by amide bond cleavage. The stability of the nanotube-RubisCO co-assembly to proteolysis by subtilisin was evaluated over 45 minutes and compared to the free R. rubrum RubisCO. […] In contrast, the bound enzyme retains 75% of its activity upon exposure to the protease over this time range."}, "[4]": {"details": "Subtilisin (0.5 μg/ml; 30° C./1 hr)"}, "[5]": {"details": "RubisCO alone or with pre-formed nanotubes added"}, "[6]": {"details": "pre-formed nanotubes from 10 mM monomer aged ~5 days, isolated by ultracentrifugation, re-suspended with 0.1 mg RubisCO in 1 mL buffer, 15 hrs"}},
  "data": [
    {"substance": "Pure R. rubrum RubisCO: RubisCO dimer from the bacterium Rhodospirillum rubrum, a CO2-fixing enzyme, free form", "values": [
      {"measurement": "% Activity retained", "setting": "[1]; Heat (65° C./10 min)", "value": 77, "unit": "%"},
      {"measurement": "Activity", "setting": "[1]; Heat (65° C./10 min)", "value": 2248, "unit": "nmol/min/mg"},
      {"measurement": "% Activity retained", "setting": "[1]; [4]", "value": 7, "unit": "%"},
      {"measurement": "Activity", "setting": "[1]; [4]", "value": 212, "unit": "nmol/min/mg"},
      {"measurement": "Activity", "setting": "[1]; untreated or no treatment stated", "value": 2903, "unit": "nmol/min/mg"},
      {"measurement": "Activity", "setting": "[1]; untreated or no treatment stated, listed as 0.1 mg/ml R. rubrum RubisCO (after 80K spin)", "value": 3007, "unit": "nmol/min/mg"},
      {"measurement": "% Activity retained", "setting": "[1]; untreated or no treatment stated, relative to pure R. rubrum RubisCO", "value": 100, "unit": "%"},
      {"measurement": "% Activity retained", "setting": "[1]; untreated or no treatment stated, relative to pure R. rubrum RubisCO, listed as 0.1 mg/ml R. rubrum RubisCO (after 80K spin)", "value": 104, "unit": "%"},
      {"measurement": "% Activity retained", "setting": "[2]; [5]", "value": 100, "unit": "%"},
      {"measurement": "Activity", "setting": "[2]; [5]", "value": 3405, "unit": "nmol/min/mg"},
      {"measurement": "% Activity retained", "setting": "[2]; [6]", "value": 100, "unit": "%"},
      {"measurement": "Activity", "setting": "[2]; [6]", "value": 1803, "unit": "nmol/min/mg"},
      {"measurement": "loss of activity in presence of subtilisin", "setting": "[3]", "value": 80, "unit": "%"}
    ]}
  ]
}
